Data published in article PMC12491784, “A Circular RNA Promotes Tumor Metastasis through Stabilizing MSI2 Protein in Pancreatic Ductal Adenocarcinoma”.

Experiments:
[1] = target: T1, MSI2 (Musashi-2), recombinant (UniProt Q96DH6 1-328); assay: pull-down; EMSA: kit binding buffer (Beyotime GS009), 25 C 1 h, 5% native PAGE; RNA pull-down: 100 pmol biotinylated probe on streptavidin beads, 4 C 4 h; high-stringency; details: protein: recombinant; tags: GST; label: 5' biotin
[2] = target: T1, MSI2 (Musashi-2), recombinant; assay: EMSA; EMSA: kit binding buffer (Beyotime GS009), 25 C 1 h, 5% native PAGE; RNA pull-down: 100 pmol biotinylated probe on streptavidin beads, 4 C 4 h; high-stringency; details: protein: recombinant; tags: GST; label: 5' biotin

T1 sequence (Q96DH6 whole entry): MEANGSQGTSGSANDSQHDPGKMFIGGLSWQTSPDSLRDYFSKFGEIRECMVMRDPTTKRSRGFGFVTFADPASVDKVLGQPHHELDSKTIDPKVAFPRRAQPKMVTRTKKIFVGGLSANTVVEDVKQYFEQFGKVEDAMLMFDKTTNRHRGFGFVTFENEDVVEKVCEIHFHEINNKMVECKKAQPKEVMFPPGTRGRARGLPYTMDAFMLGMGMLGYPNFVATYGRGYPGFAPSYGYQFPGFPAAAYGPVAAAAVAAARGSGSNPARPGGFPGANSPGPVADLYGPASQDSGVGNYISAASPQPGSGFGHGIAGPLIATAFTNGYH

Binder	binding result [1]	binding result [2]
GUGUGCUCCAAACUUUAUCAAAAG (ssRNA) [P1-mut RNA probe]	no binding	–
UCCUAUCAAAUAACUAAACCAAAG (ssRNA) [P2-mut RNA probe]	no binding	–
GUGUGCUCCAUAGUUUAUCAAAAG (ssRNA) [P1 RNA probe]	–	binds
UCCUAUCAAAUUAGUAAACCAAAG (ssRNA) [P2 RNA probe]	–	binds
